# From paper PMC6802635
# Target: NRLLLTG peptide
# Assay: ELISA; 150 ng NRLLLTG peptide coated on the plate in 0.05 M sodium carbonate pH 9.6; HSP70 protein added in a dose-dependent manner; detected with anti-HSP70 antibody, TMB, 450 nm
substance,measurement,value
purified HSP70 S385D/S400D double phospho-mimetic mutant (from UniProt P0DMV8 1-641) (natural protein),fold affinity relative to WT HSP70,1.5 fold
